From paper PMC10068178

Biological target: α-synuclein aggregates (small fibrils, oligomeric/protofibrillary species) formed in the aggregation reaction (UniProt P37840)

diagnostic α-syn SAA on PD CSF, increase of the time to reach the fluorescence threshold of 5000 a.u. (TTT) against neat samples, HDL at 2X (~ 24%) and 5X the CSF physiological concentration: 55%
Substance: human serum high-density lipoprotein (HDL) (complex)
